Measured values from article PMC5498567.

Test system: T1, BsmT (Stenotrophomonas maltophilia ATCC 13637 (CGMCC 1.1788 in supplement)), ORF:ed0b4815
T1 sequence: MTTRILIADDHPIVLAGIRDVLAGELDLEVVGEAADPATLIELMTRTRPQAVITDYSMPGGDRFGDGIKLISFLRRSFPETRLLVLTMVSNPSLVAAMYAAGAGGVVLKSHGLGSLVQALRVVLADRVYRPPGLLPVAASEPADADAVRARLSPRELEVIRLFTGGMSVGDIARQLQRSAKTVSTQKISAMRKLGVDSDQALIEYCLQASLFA
Test: EMSA
Conditions: EMSA: 1 fmol 32P-labelled dsDNA with BsmT in reaction buffer at 28 °C; buffer composition, salt and pH not given (protein storage buffer 50 mM Tris-HCl, 0.5 mM …)

## GTGCCCGGCCAATGTCGGTACAGGAAACCCCCGCTTCGGCGGGGGTTCCTTTTTTTGCCACCTGAACGGTGCCCGCGTGCAGGCTCCGGGCCGGTCGGCCAGCCGGGGATTTTAGGAAACAGCTGATTCCGCGCCGTCCGCGCCGCTTCCTAGCATCGTTGC (double strand)
  binding: binds
